Experimental data reported in the supplement of paper PMC6757056.
± gives the standard deviation of the averaged measurements.

B1: library; a variant is named by its letters at N, in order (parent)
chain: GCUGUCACCGGUGCUUGGUACGUUAUAUUCAGCCGGUCUGAUGAGUCUNNNNNNAGACGAAACAGC

Assays:
(6R,S)-folinic acid [1] = variants of: B1; test: FACS-Seq fitted mean relative fluorescence mCherry/BFP without ligand (log10 relative fluorescence); HEK293T overexpressing SLC46A1; higher = higher reporter protein expression; settings: without (6R,S)-folinic acid; ligand present: no
In short: (§1)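 Reporter cells were enriched HEK293T libraries transduced by lentivirus with mCherry behind the ribozyme switch and with an EF1α-BFP marker. Following 48 h with or without ligand, they were sorted into 6 mCherry/BFP bins, and bin genomic DNA was PCR-amplified, barcoded and MiSeq-sequenced. Fluorescence was computed as the fitted normal mean of the bin counts. The fit used log10(mCherry/BFP), with scaling to five spiked-in control ribozymes.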

(6R,S)-folinic acid [2] = variants of: B1; test: normalized RNA/DNA level without ligand (relative to sTRSVctl = 100) (log10 (% of sTRSVctl)); HEK293T overexpressing SLC46A1; higher = less ribozyme self-cleavage, higher mRNA level; settings: without (6R,S)-folinic acid; ligand present: no
In short: (§2)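 Ribozyme switch library plasmids with mCherry reporters (eGFP in certain ligand experiments) went into HEK293T cells at 4 µg per 6-well well. Where ligand was used, it was applied 1 h before transfection, and total RNA was extracted with EDTA 72 h later for reverse transcription, amplification, barcoding and sequencing. RNA level is the RNA-to-DNA read ratio normalized to a spiked-in non-cleaving sequence or to the leading sequences, then scaled and log-transformed. Scaling was ×100 with log10, the leading set comprised 25 sequences, and the cutoff was ≥100 DNA reads.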

(6R,S)-folinic acid [3] = variants of: B1; test: FACS-Seq fitted mean relative fluorescence mCherry/BFP with ligand (log10 relative fluorescence); HEK293T overexpressing SLC46A1; ligand concentration (+) FACS-Seq: 6 mM; higher = higher reporter protein expression; settings: with (6R,S)-folinic acid; ligand present: yes
In short: as §1

(6R,S)-folinic acid [4] = variants of: B1; test: normalized RNA/DNA level with ligand (relative to sTRSVctl = 100) (log10 (% of sTRSVctl)); HEK293T overexpressing SLC46A1; ligand concentration (+) RNA-Seq: 6 mM; higher = less ribozyme self-cleavage, higher mRNA level; settings: with (6R,S)-folinic acid; ligand present: yes
In short: as §2

Row | Variant | FACS-Seq fitted mean (log10) ((6R,S)-folinic acid [1]) | normalized RNA/DNA level without ligand (log10) ((6R,S)-folinic acid [2]) | FACS-Seq fitted mean (log10) ((6R,S)-folinic acid [3]) | normalized RNA/DNA level with ligand (log10) ((6R,S)-folinic acid [4])
1 | GCUGUCACCGGUGCUUGGUACGUUAUAUUCAGCCGGUCUGAUGAGUCUAUAUACAGACGAAACAGC [AUAUAC] | 0.205 ± 0.083 | 1.994 ± 0.015 | 0.279 ± 0.065 | 2 ± 0.041
2 | GCUGUCACCGGUGCUUGGUACGUUAUAUUCAGCCGGUCUGAUGAGUCUGUAGGGAGACGAAACAGC [GUAGGG] | 0.666 ± 0.045 | 1.881 ± 0.0094 | 0.643 ± 0.24 | 1.99 ± 0.024
3 | GCUGUCACCGGUGCUUGGUACGUUAUAUUCAGCCGGUCUGAUGAGUCUAUAGCAAGACGAAACAGC [AUAGCA] | 0.356 ± 0.058 | 1.9776 ± 0.00078 | 0.516 ± 0.016 | 2.03 ± 0.028
4 | GCUGUCACCGGUGCUUGGUACGUUAUAUUCAGCCGGUCUGAUGAGUCUAUAGCCAGACGAAACAGC [AUAGCC] | 0.385 ± 0.019 | 2.036 ± 0.0053 | 0.591 ± 0.43 | 2.03 ± 0.051
5 | GCUGUCACCGGUGCUUGGUACGUUAUAUUCAGCCGGUCUGAUGAGUCUAUAGCGAGACGAAACAGC [AUAGCG] | 0.172 ± 0.0027 | 1.664 ± 0.015 | 0.461 ± 0.046 | 1.96 ± 0.045
6 | GCUGUCACCGGUGCUUGGUACGUUAUAUUCAGCCGGUCUGAUGAGUCUUUAGGGAGACGAAACAGC [UUAGGG] | 0.0949 ± 0.0093 | 1.776 ± 0.008 | 0.324 ± 0.11 | 2 ± 0.021
7 | GCUGUCACCGGUGCUUGGUACGUUAUAUUCAGCCGGUCUGAUGAGUCUUUAGGCAGACGAAACAGC [UUAGGC] | 0.366 ± 0.0042 | 1.974 ± 0.0042 | 0.465 ± 0.26 | 2 ± 0.058
8 | GCUGUCACCGGUGCUUGGUACGUUAUAUUCAGCCGGUCUGAUGAGUCUUUAGGAAGACGAAACAGC [UUAGGA] | 0.674 ± 0.033 | 1.879 ± 0.014 | 0.677 ± 0.022 | 2 ± 0.045
9 | GCUGUCACCGGUGCUUGGUACGUUAUAUUCAGCCGGUCUGAUGAGUCUUUAGCAAGACGAAACAGC [UUAGCA] | -0.108 ± 0.12 | 1.9803 ± 0.0011 | -0.232 ± 0.1 | 2.0126 ± 0.00039
10 | GCUGUCACCGGUGCUUGGUACGUUAUAUUCAGCCGGUCUGAUGAGUCUAUAGUAAGACGAAACAGC [AUAGUA] | 0.293 ± 0.042 | 1.93 ± 0.027 | 0.273 ± 0.21 | 1.97 ± 0.019
11 | GCUGUCACCGGUGCUUGGUACGUUAUAUUCAGCCGGUCUGAUGAGUCUAUAGUGAGACGAAACAGC [AUAGUG] | 0.15 ± 0.12 | 1.59 ± 0.023 | 0.795 ± 0.071 | 1.93 ± 0.024
12 | GCUGUCACCGGUGCUUGGUACGUUAUAUUCAGCCGGUCUGAUGAGUCUGUAGUGAGACGAAACAGC [GUAGUG] | 0.359 ± 0.012 | 1.856 ± 0.0051 | 0.637 ± 0.19 | 1.99 ± 0.054
13 | GCUGUCACCGGUGCUUGGUACGUUAUAUUCAGCCGGUCUGAUGAGUCUAUAGGUAGACGAAACAGC [AUAGGU] | 0.477 ± 0.19 | 1.87 ± 0.023 | 0.695 ± 0.3 | 2.01 ± 0.047
14 | GCUGUCACCGGUGCUUGGUACGUUAUAUUCAGCCGGUCUGAUGAGUCUAUAGGCAGACGAAACAGC [AUAGGC] | 0.336 ± 0.054 | 2.013 ± 0.012 | 0.59 ± 0.1 | 2.047 ± 0.016
15 | GCUGUCACCGGUGCUUGGUACGUUAUAUUCAGCCGGUCUGAUGAGUCUAUAGGGAGACGAAACAGC [AUAGGG] | -0.255 ± 0.066 | 1.599 ± 0.0044 | 0.286 ± 0.019 | 1.92 ± 0.025
16 | GCUGUCACCGGUGCUUGGUACGUUAUAUUCAGCCGGUCUGAUGAGUCUGUAGAUAGACGAAACAGC [GUAGAU] | 0.516 ± 0.029 | 1.9541 ± 0.0012 | 0.494 ± 0.37 | 1.98 ± 0.047
17 | GCUGUCACCGGUGCUUGGUACGUUAUAUUCAGCCGGUCUGAUGAGUCUCUAGAUAGACGAAACAGC [CUAGAU] | 0.368 ± 0.079 | 1.957 ± 0.0032 | 0.387 ± 0.061 | 2 ± 0.028
18 | GCUGUCACCGGUGCUUGGUACGUUAUAUUCAGCCGGUCUGAUGAGUCUCUAGGCAGACGAAACAGC [CUAGGC] | 0.0076 ± 0.12 | 2.005 ± 0.0013 | 0.186 ± 0.24 | 2 ± 0.028
19 | GCUGUCACCGGUGCUUGGUACGUUAUAUUCAGCCGGUCUGAUGAGUCUCUAGGUAGACGAAACAGC [CUAGGU] | 0.652 ± 0.16 | 2.024 ± 0.0033 | 0.694 ± 0.027 | 2.05 ± 0.028
20 | GCUGUCACCGGUGCUUGGUACGUUAUAUUCAGCCGGUCUGAUGAGUCUGUAGCUAGACGAAACAGC [GUAGCU] | 0.643 ± 0.11 | 2.009 ± 0.01 | 0.287 ± 0.14 | 1.998 ± 0.0026
21 | GCUGUCACCGGUGCUUGGUACGUUAUAUUCAGCCGGUCUGAUGAGUCUAUAGAUAGACGAAACAGC [AUAGAU] | 0.365 ± 0.1 | 1.925 ± 0.011 | 0.406 ± 0.1 | 2 ± 0.054
